According to article PMC8546227:

Target: Hoc^-Soc^- T4 phage capsid (bacteriophage T4) (UniProt P19896)
Experiment: co-sedimentation

Sequence of UniProt P19896 (P19896 whole entry, looked up): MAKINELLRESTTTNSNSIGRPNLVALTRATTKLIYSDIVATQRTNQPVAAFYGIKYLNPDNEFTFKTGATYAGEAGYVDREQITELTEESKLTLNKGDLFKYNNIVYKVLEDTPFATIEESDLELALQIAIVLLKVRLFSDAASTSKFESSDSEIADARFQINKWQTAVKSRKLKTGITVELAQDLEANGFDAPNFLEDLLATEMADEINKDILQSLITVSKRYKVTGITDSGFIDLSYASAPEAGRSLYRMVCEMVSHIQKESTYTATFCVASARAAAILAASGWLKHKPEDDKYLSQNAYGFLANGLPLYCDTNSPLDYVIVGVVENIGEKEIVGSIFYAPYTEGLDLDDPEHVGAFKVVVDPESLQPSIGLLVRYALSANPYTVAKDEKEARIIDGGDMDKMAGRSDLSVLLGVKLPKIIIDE

Substance: Soc-3M2e fusion protein (RB69 Soc with three tandem copies of M2e from human, swine and avian influe
- Kd: 305 nM
